Patent US20240369485A1, “FLUORESCENT SENSOR FOR MONITORING CALCIUM DYNAMICS” (priority 2021, published 2024)

Key:
[1] = pKa determination of the chromophore; assay type: physicochemical
Description: pKa determination. To measure the chromophore pKa of mApple, EGFP, and mCherry variants, the proteins were prepared in buffers (sodium acetate buffer for pH 3-5, MES buffer for pH 5-6, HEPES buffer for pH 6.5-8, TRIS buffer for pH 8.5-9) covering a pH range from 3 to 10. All samples were Incubated at 4° C. overnight, then the following day, the absorbance and fluorescence spectra were collected using a Shimadzu UV-1601 spectrophotometer and the Spectrofluorimeter.

HeLa cells = test: In situ Ca^2+ binding affinity in HeLa cells with stepwise Ca^2+ concentrations; assay type: cell-based
Description: (§1) Cell culture and transfection. C2C12, HEK293 and HeLa cells were cultured and maintained in Dulbecco's modified Eagle's medium (DMEM) supplemented with 10% fetal bovine serum (FBS) and high glucose (4.5 g/L) at 37° C. R-CatchER, G-CatchER2, G-CEPIA1er, R-CEPIA1er or R-CatchER with GFP-CaSR (wt and mutations) were transfected into cells using Lipofectamine 3000 (Life Technologies), following the manufacturer's instructions. Seed cells onto sterilized 22 mm×40 mm glass microscope slides in 6 cm dishes until about 70% confluency, the day of transfection. The next day, 2 μg of plasmid were mixed with transfection reagent in the reduced serum media Opti-MEM for 4-6 h at 37° C. The media was then replaced with 3 mL of fresh DMEM and incubated at 37° C. for 48 h.

C2C12 cells = test: HILO imaging of ER Ca^2+ dynamics in C2C12 cells; assay type: cell-based; conditions: ER Ca^2+ release
Description: as §1
HILO imaging of R-CatchER, G-CatchER2, R-CEPIA1er, and G-CEPIA1er. […] A quad-band filter set (TRF89901v2, Chroma) was used for filtering out the fluorescence background. Fluorescence images of samples were recorded at 1 Hz as the concentration of ER Ca^2+ was perturbed by perfusion of 3 μM Thapsigargin, 0.5 mM 4-cmc, 1 mM 4-cmc, 100 μM ATP, or 100 μM histamine.

[2] = test system: primary hippocampal neurons; test: Wide-field imaging in neuronal cultures; assay type: cell-based, mice; conditions: for decrease of fluorescence upon DHPG: 100 μM DHPG; for ER Ca^2+ transient ΔF/F: field stimulation 50 Hz for 1 s
Description: Wide-field imaging in neuronal cultures. Primary neuronal cultures were generated from embryonic day 18 or postnatal day 0-1 mice and plated onto poly-D-lysine (Sigma) coated coverslips as previously described. Neurons were maintained in neuronal feeding media (Neurobasal media, ThermoFisher Scientific) containing 1% GlutaMAX (ThermoFisher Scientific), 2% B-27 (ThermoFisher Scientific), 0.002 mg/mL Gentamicin (Sigma) with or without 10 μM 5 fluoro 2-deoxyuridine (Sigma-Aldrich) and fed every 3-4 days via half neuronal feeding media exchanges. Neurons were transfected with plasmid(s) through either lipofection or electroporation. For lipofection, at 11-12 days in vitro, cells were transfected using Lipofectamine 2000 Reagent (ThermoFisher Scientific) with a modified protocol. For electroporation, dissociated cells in suspension were electroporated in a cuvette using the 4D-Nucleofector system (Lonza) following the manufacturer's instructions prior to plating in FBS-containing Neurobasal media without B-27. Full media exchange was performed the following day with serum- and antibiotics-free Neurobasal media.
Neurons were imaged between 12-15 days in vitro, using an inverted (Olympus IX71) or an upright (Scientifica HyperScope) wide-field fluorescence microscope equipped with an epi-fluorescence turret (Olympus), a scientific CMOS camera (Hamamatsu ORCA-Flash4.0 LT), a mercury lamp (Olympus) or an LED light source (CoolLED pE-300ultra), and an oil- (Olympus Uapo/340 40×/1.35NA) or water-immersion objective (Nikon CFI75 LWD 16×W 0.8NA), respectively. R-CatchER or jGCaMP7s was viewed using a TRITC (Chroma 41002) or FITC (Chroma 41001) fluorescence filter cube, respectively. Images were obtained every 5 s or 33.3 ms using Micro-Manager (the Vale lab, UCSF) at room temperature.
The external solution contained 150 mM NaCl, 3 mM KCl, 2 mM MgCl2, 2 mM CaCl2), 10 mM HEPES, and 20 mM glucose at a pH of 7.35. mGluR agonists were applied in the bath. Field electrical stimulation was applied with a stimulus isolator (World Precision Instruments A360) via an imaging chamber with two platinum wires (Warner Instruments RC-21BRFS). Trains (2 ms to 2 s at 50 HZ) of pulses (10 mA for 2 ms) were controlled by pClamp 10 software and Digidata 1440A data acquisition system (Molecular Devices). Imaging data were processed and analyzed using in-house and NeuroMatic (Jason Rothman) macros in Igor Pro 8 (WaveMetrics).

B1: R-CatchER: red genetically encoded Ca^2+ indicator, mApple A145E/K198D/R216D, SEQ ID NO: 12 (protein)
chain: EENNMAIIKEFMRFKVHMEGSVNGHEFEIEGEGEGRPYEAFQTAKLKVTKGGPLPFAWDILSPQFMYGSKVYIKHPADIPDYFKLSFPEGFRWERVMNFEDGGIIHVNQDSSLQDGVFIYKVKLRGTNFPSDGPVMQKKTMGWEESEERMYPEDGALKSEIKKRLKLKDGGHYAAEVKTTYKAKKPVQLPGAYIVDIDLDIVSHNEDYTIVEQYEDAEGRHSTGGMDELYK
[1]; 0 mM Ca^2+
  apparent pKa: 8.58±0.11
[1]; 10 mM Ca^2+
  apparent pKa: 7.11±0.10
[1]; Apo
  pka: 8.58 ± 0.11
[1]; Holo
  pKa (holo): 7.1
  pka: 7.11 ± 0.10
[1]; apo
  pKa (apo): 8.6
HeLa cells
  Kd: 310 ± 50 µM
C2C12 cells; 0.5 mM 4-cmc
  fluorescence decrease ΔF/F: 0.36±0.01
C2C12 cells; 1 mM 4-cmc
  fluorescence decrease ΔF/F: 0.47±0.02
[2]; primary, first value (dendrites by printed order)
  decrease of fluorescence upon DHPG: 0.13±0.02
[2]; primary, second value (branchpoints by printed order)
  decrease of fluorescence upon DHPG: 0.08±0.01
[2]; secondary, first value (dendrites by printed order)
  decrease of fluorescence upon DHPG: 0.12±0.03
[2]; secondary, second value (branchpoints by printed order)
  decrease of fluorescence upon DHPG: 0.07±0.01
[2]; branchpoints
  ER Ca^2+ transient ΔF/F: 0.077±0.022
[2]; primary dendrites
  ER Ca^2+ transient ΔF/F: 0.083±0.039
[2]; secondary dendrites
  ER Ca^2+ transient ΔF/F: 0.036±0.017
[2]; soma
  ER Ca^2+ transient ΔF/F: 0.173±0.048
